The target in assay [1] is T1, Human IFNβ (mature human interferon beta) (human, UniProt P01574 22-187). The assay is described as follows: cell-based or functional assay.
Assay [2] addresses T1, Human IFNβ (mature human interferon …). The assay is described as follows: Octet (BLI) response rank; method not described.
For assay [3] the target is unchanged. Description: SPR (affinity maturation); before the light chain mutations (parent antibody).
Assay [4] shares this target. Description: SPR, Biacore T200; antibody amine-coupled on CM5 chip, human IFNβ as analyte, 1:1 model.

T1 sequence (P01574 22-187): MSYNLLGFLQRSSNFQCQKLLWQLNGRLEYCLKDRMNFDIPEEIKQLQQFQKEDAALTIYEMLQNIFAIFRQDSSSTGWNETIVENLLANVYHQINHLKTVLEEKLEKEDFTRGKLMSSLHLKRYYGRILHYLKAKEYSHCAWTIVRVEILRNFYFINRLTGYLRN

B1: CTI-AF15 (antibody, human IgG1, kappa, V domains shown)
VH: QVQLVQSGAEVKKPGSSVKVSCKASGYTFSRYWMHWVRQAPGQGLEWMGHIDPSDSYTYYNQKFKGRVTITADESTSTAYMELSSLRSEDTAVYYCARWDYGNLLFEYWGQGTLVTVSS
VL: DIQMTQSPSSLSASVGDRVTITCRTSQDISSYLNWYQQKPGKAFKLLIYSTSRLHSGVPSRFSGSGSGTDFTLTISSLQPEDFATYYCQQGIILPITFGGGTKVEIKR
Regarding B1, in assay [1], the “IC50 (pM) pSTAT1 Inhibition” value worked out at 80 pM. In assay [2], the “Response rank (Octet)” value was 3 rank.

B2: humanized parent of CTI-AF1 before affinity maturation (antibody, V domains shown)
VH: QVQLVQSGAEVKKPGSSVKVSCKASGYTFSRYWMHWVRQAPGQGLEWMGHIDPSDSYTYYNQKFKGRVTITADESTSTAYMELSSLRSEDTAVYYCARWDYGNLLFEYWGQGTLVTVSS
VL: DIQMTQSPSSLSASVGDRVTITCRTSQDISNYLNWYQQKPGKAFKLLIYSTSRLHSGVPSRFSGSGSGTDFTLTISSLQPEDFATYYCQQGHTLPLTFGGGTKVEIK
notes: no mutations were made in VH
As to B2, the dissociation constant Kd in assay [3] came to 25 nM.

B3: CTI-AF5 (antibody, human IgG1, kappa, V domains shown)
VH: QVQLVQSGAEVKKPGSSVKVSCKASGYTFSRYWMHWVRQAPGQGLEWMGHIDPSDSYTYYNQKFKGRVTITADESTSTAYMELSSLRSEDTAVYYCARWDYGNLLFEYWGQGTLVTVSS
VL: DIQMTQSPSSLSASVGDRVTITCRTSQDISNYLNWYQQKPGKAFKLLIYTTSRLRSGVPSRFSGSGSGTDFTLTISSLQPEDFATYYCQQGIVLPITFGGGTKVEIKR
In the case of B3, the “IC50 (pM) pSTAT1 Inhibition” value in assay [1] amounted to 10 pM.

B4: CTI-AF27 (antibody, human IgG1, kappa, V domains shown)
VH: QVQLVQSGAEVKKPGSSVKVSCKASGYTFSRYWMHWVRQAPGQGLEWMGHIDPSDSYTYYNQKFKGRVTITADESTSTAYMELSSLRSEDTAVYYCARWDYGNLLFEYWGQGTLVTVSS
VL: DIQMTQSPSSLSASVGDRVTITCRTSQDIDNFLQWYQQKPGKAFKLLIFSTSKLHSGVPSRFSGSGSGTDFTLTISSLQPEDFATYYCQQGIILPITFGGGTKVEIKR
Regarding B4, the “IC50 (pM) pSTAT1 Inhibition” value in assay [1] turned out to be 70 pM. Moreover, the “Response rank (Octet)” value in assay [2] was 10 rank.

B5: CTI-AF8 (antibody, human IgG1, kappa, V domains shown)
VH: QVQLVQSGAEVKKPGSSVKVSCKASGYTFSRYWMHWVRQAPGQGLEWMGHIDPSDSYTYYNQKFKGRVTITADESTSTAYMELSSLRSEDTAVYYCARWDYGNLLFEYWGQGTLVTVSS
VL: DIQMTQSPSSLSASVGDRVTITCRTSQDIGNYLNWYQQKPGKAFKLLIYSTSRLHSGVPSRFSGSGSGTDFTLTISSLQPEDFATYYCQQSTILPLTFGGGTKVEIKR
B5: the “IC50 (pM) ISRE Neutralization” value in assay [1] stood at 460 pM. Also, the “Response rank (Octet)” value in assay [2] is 6 rank.

B6: CTI-AF21 (antibody, human IgG1, kappa, V domains shown)
VH: QVQLVQSGAEVKKPGSSVKVSCKASGYTFSRYWMHWVRQAPGQGLEWMGHIDPSDSYTYYNQKFKGRVTITADESTSTAYMELSSLRSEDTAVYYCARWDYGNLLFEYWGQGTLVTVSS
VL: DIQMTQSPSSLSASVGDRVTITCRTSQDIDNFLQWYQQKPGKAFKLLIFSTSKLHSGVPSRFSGSGSGTDFTLTISSLQPEDFATYYCQQGIVLPITFGGGTKVEIKR
Consider B6, for which the “Response rank (Octet)” value in assay [2] was 11 rank.

B7: CTI-AF4 (antibody, human IgG1, kappa, V domains shown)
VH: QVQLVQSGAEVKKPGSSVKVSCKASGYTFSRYWMHWVRQAPGQGLEWMGHIDPSDSYTYYNQKFKGRVTITADESTSTAYMELSSLRSEDTAVYYCARWDYGNLLFEYWGQGTLVTVSS
VL: DIQMTQSPSSLSASVGDRVTITCRTSQDISSYLNWYQQKPGKAFKLLIYSTSRLHSGVPSRFSGSGSGTDFTLTISSLQPEDFATYYCQQGIVLPITFGGGTKVEIKR
As for B7, in assay [2], the “Response rank (Octet)” value is 4 rank.

B8: CTI-AF10 (antibody, human IgG1, kappa, V domains shown)
VH: QVQLVQSGAEVKKPGSSVKVSCKASGYTFSRYWMHWVRQAPGQGLEWMGHIDPSDSYTYYNQKFKGRVTITADESTSTAYMELSSLRSEDTAVYYCARWDYGNLLFEYWGQGTLVTVSS
VL: DIQMTQSPSSLSASVGDRVTITCRTSQDISSYLNWYQQKPGKAFKLLIYSTSRLHSGVPSRFSGSGSGTDFTLTISSLQPEDFATYYCQQSTILPLTFGGGTKVEIKR
As to B8, the “Response rank (Octet)” value in assay [2] came out at 5 rank.

B9: CTI-AF14 (antibody, human IgG1, kappa, V domains shown)
VH: QVQLVQSGAEVKKPGSSVKVSCKASGYTFSRYWMHWVRQAPGQGLEWMGHIDPSDSYTYYNQKFKGRVTITADESTSTAYMELSSLRSEDTAVYYCARWDYGNLLFEYWGQGTLVTVSS
VL: DIQMTQSPSSLSASVGDRVTITCRTSQDISNYLNWYQQKPGKAFKLLIFSTSRLHSGVPSRFSGSGSGTDFTLTISSLQPEDFATYYCQQGIILPITFGGGTKVEIKR
As to B9, in assay [1], the “IC50 (pM) pSTAT1 Inhibition” value amounted to 30 pM. The “Response rank (Octet)” value in assay [2] worked out at 7 rank.

B10: CTI-AF9 (antibody, human IgG1, kappa, V domains shown)
VH: QVQLVQSGAEVKKPGSSVKVSCKASGYTFSRYWMHWVRQAPGQGLEWMGHIDPSDSYTYYNQKFKGRVTITADESTSTAYMELSSLRSEDTAVYYCARWDYGNLLFEYWGQGTLVTVSS
VL: DIQMTQSPSSLSASVGDRVTITCRTSQDISNYLNWYQQKPGKAFKLLIFSTSRLHSGVPSRFSGSGSGTDFTLTISSLQPEDFATYYCQQSTILPLTFGGGTKVEIKR
Consider B10, for which the “IC50 (pM) ISRE Neutralization” value in assay [1] amounted to 75 pM. The “Response rank (Octet)” value in assay [2] stood at 12 rank.

B11: CTI-AF20 (antibody, human IgG1, kappa, V domains shown)
VH: QVQLVQSGAEVKKPGSSVKVSCKASGYTFSRYWMHWVRQAPGQGLEWMGHIDPSDSYTYYNQKFKGRVTITADESTSTAYMELSSLRSEDTAVYYCARWDYGNLLFEYWGQGTLVTVSS
VL: DIQMTQSPSSLSASVGDRVTITCRTSQDISSYLNWYQQKPGKAFKLLIYTTSRLRSGVPSRFSGSGSGTDFTLTISSLQPEDFATYYCQQGIVLPITFGGGTKVEIKR
Consider B11, for which the “IC50 (pM) pSTAT1 Inhibition” value in assay [1] is 20 pM. Further, the “Response rank (Octet)” value in assay [2] is 8 rank. The molecule further had a Kd in assay [4] of 0.335 nM.

B12: CTI-AF23 (antibody, human IgG1, kappa, V domains shown)
VH: QVQLVQSGAEVKKPGSSVKVSCKASGYTFSRYWMHWVRQAPGQGLEWMGHIDPSDSYTYYNQKFKGRVTITADESTSTAYMELSSLRSEDTAVYYCARWDYGNLLFEYWGQGTLVTVSS
VL: DIQMTQSPSSLSASVGDRVTITCRTSQDISSYLNWYQQKPGKAFKLLIYTTSRLRSGVPSRFSGSGSGTDFTLTISSLQPEDFATYYCQQSTILPLTFGGGTKVEIKR
Turning to B12, the “Response rank (Octet)” value in assay [2] was determined as 9 rank.

B13: CTI-AF16 (antibody, human IgG1, kappa, V domains shown)
VH: QVQLVQSGAEVKKPGSSVKVSCKASGYTFSRYWMHWVRQAPGQGLEWMGHIDPSDSYTYYNQKFKGRVTITADESTSTAYMELSSLRSEDTAVYYCARWDYGNLLFEYWGQGTLVTVSS
VL: DIQMTQSPSSLSASVGDRVTITCRTSQDISNYLNWYQQKPGKAFKLLIYTTSRLRSGVPSRFSGSGSGTDFTLTISSLQPEDFATYYCQQGIILPITFGGGTKVEIKR
In the case of B13, the “IC50 (pM) ISRE Neutralization” value in assay [1] turned out to be 14 pM. Also, in assay [2], the “Response rank (Octet)” value worked out at 2 rank.

The values are drawn from patent US20170313769A1 (Pfizer, published 2017).
